# Test results: publication PMC3798461
# pKd: −log10 of the molar value.
# Experiments:
# [1] = target: mLANA_(140–272), C-terminal DNA-binding domain of murine gammaherpesvirus 68 latency-associated nuclear antigen (murine gammaherpesvirus 68 (MHV-68)); assay: SEC; purified mLANA DBD truncations analysed by size exclusion chromatography; oligomeric state from the elution volume
# [2] = target: mLANA_(140–314) (murine gammaherpesvirus 68 (MHV-68)); assay: as above
# [3] = tested on: mLANA124-272 WT (Murine gammaherpesvirus 68 (MHV-68, MuHV-4)); assay: SPR; conditions: 5' biotin with TTTTT spacer; EMSA: 20 mM Tris-HCl pH 7.5, 50 mM KCl, 10 mM MgCl2, 1 mM EDTA, 20 ug/mL poly(dI-dC), 0.1 mM DTT, 10% glycerol, RT; ITC: 25 mM Na/K phosphate pH 7.0, 150 mM …
# [4] = tested on: mLANA124-314 WT (Murine gammaherpesvirus 68 (MHV-68, MuHV-4)); assay: ITC; conditions: EMSA: 20 mM Tris-HCl pH 7.5, 50 mM KCl, 10 mM MgCl2, 1 mM EDTA, 20 ug/mL poly(dI-dC), 0.1 mM DTT, 10% glycerol, RT; ITC: 25 mM Na/K phosphate pH 7.0, 150 mM …
substance,measurement,setting,value
"mLANA_(140–272), C-terminal DNA-binding domain of murine gammaherpesvirus 68 latency-associated nuclear antigen (domain or fragment)",stoichiometry N,[1],2
mLANA_(140–314) (domain or fragment),stoichiometry N,[2],4
mLBS1 SPR ligand (biotin-TTTTT-mLBS1),pKd,[3],6.77
mLBS1 for ITC and SEC (no spacer),pKd,[4],7.18
